Data on one substance can be found in US20230372503A1, “CONJUGATE OF FUNCTIONAL POLYPEPTIDE VARIANT, AND USE THEREOF” (PROABTECH INC., priority 2020, published 2023).

The series is described as follows: Pharmacokinetics (PK) of hGH variant-HSA conjugate, blood level by sandwich ELISA. It counts as in vivo. As to conditions: 7-week-old male ICR mice, 65 nmol/kg intravenous tail injection, blood 0.5-24 h. The protocol:
For pharmacokinetic evaluation of the hGH variant-HSA conjugate, 7-week-old male ICR mice (n=6) were used. 65 nmol/kg each of hGH variant-HSA (L52) and hGH variant-HSA (Q141) was intravenously injected into the tail, blood collection was performed at 0.5, 4, 8, 12, and 24 hours after injection, and centrifugation was performed at 2,500 rpm for 10 minutes, followed by storing at −20° C. As a comparative group, Norditropin (somatropin, Novo Nordisk) was administered at the same concentration, and then compared with the above sample.
The hGH variant-HSA conjugate in blood was analyzed by sandwich ELISA (human growth hormone (GH) DouSet ELISA, R&D Systems). An anti-hGH capture antibody was added to coat an immunoplate at 4° C. overnight, and a reaction was blocked with 1% BSA in PBS at 37° C. for 1 hour. The blood sample collected and was diluted on the washed plate and left for 2 hours, and then treated with an anti-hGH detection antibody at room temperature for 2 hours. After treating the detection antibody with streptavidin-HRP at room temperature for 1 hour, 100 μL of a substrate was treated for 5 minutes and then 2N H2SO4 was treated to stop the reaction. Afterward, a microplate reader (Hidexsense, Finland) was used to measure an optical density at 450 nm. […]
A general note: In an ELISA, binding on a coated surface is turned into a signal by an enzyme label.

One may read the half-life as how long it takes for the measured level to halve.

In turn, “Norditropin: comparative group, Norditropin (somatropin, Novo Nordisk)” had a half-life of 30 min.
